Data on 16 sequences can be found in the nanobody polyreactivity screen of Harvey et al. (2022).

A short description of the series: yeast display, Sf9 membrane polyspecificity reagent, FACS + sequencing; frameworks hold sequencing errors. The method in brief:
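Genes from sorted yeast were amplified by colony PCR, read by MiSeq 2 × 250 sequencing and filtered on CDR length. These cells carried a synthetic nanobody library in Saccharomyces cerevisiae BJ5465 and were sorted by FACS into low and high (top ~1%) gates on anti-HA and streptavidin fluorescence. Polyreactivity is labelled according to the gate of origin.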
With “QVQLVESGGGLVQAGGSLRLSCAASGRIFASYGMGWYRQAPGKETELVATINSSGGSTYYADSVKGRFTISRDNAKNTVYLQLKSLKPEDTAVYYSNARHGYYKYGYWGQGTQVTVSS”, the “polyreactivity (PSR sort gate)” value is recorded as “low polyreactivity”.

Take “QVQLVESGGGLVQAGGSLRLSCAASGRIFATNAMGWDRPAPGKERELVATITRSAGRTYYADSVKGRFTISRDNAKNTVYFQMNSLKPEDTAVYYCAASYWDTEPGYREYDYWGQGTQVTVSS”: the “polyreactivity (PSR sort gate)” value was “low polyreactivity”.

For “QVQLVESGGGLVQAGGSLRLSCAASGRIFAVNAMGWYRQAPGTERELVAAITNVASTKYADSVKGRFTISRDNAKNTVYLQMNSLKQEDTAVYYCNADLSQEDWKMDYWGQGTQVTVSS”, the “polyreactivity (PSR sort gate)” value is given as “low polyreactivity”.

As for “QVQLVESGGGLVQAGGSLRLSCAASGRIFAVYAMGWYRQAAGKERELVAAITSTGSTNYADSVKGRFTISRDNAKNTVYLQMNSLKPEDTAVYYCAKRRHSSWLRYNYWGQGTQVTVSS”, the “polyreactivity (PSR sort gate)” value is “low polyreactivity”.

Take “QVQLVESGGGLVQAGGSLRLSCAASGRIFAWNDMGWYRQAPGKERELVAAITSGGSTYYADSVKGRFTISRDNAKNTVYLQMNSLKPEDTAVYYCAADRVRRNDKLAYDYWGQGTQVTVSS”: the “polyreactivity (PSR sort gate)” value is given as “low polyreactivity”.

As to “QVQLVESGGGLVQAGGSLRLSCAASGRIFAYKAMGWYRQEPGKERELVAAISWSGSSTYYADSVKGRFTISRDNAKNTVYLQMNSLKPEDTAVYYCAATPWYYYSTSYAYYFWGQGTQVTVSS”, the “polyreactivity (PSR sort gate)” value is reported as “high polyreactivity”.

Regarding “QVQLVESGGGLVQAGGSLRLSCAASGRIFAYNAMGWYRQAPGKERELVAAISSGGNTYYADSVKGRFTISRDNAKNTVYLQMNSLKPEDTAVYYCNAGVGWHRYYSNYDFWGQGTQVTVSS”, the “polyreactivity (PSR sort gate)” value is “low polyreactivity”.

With “QVQLVESGGGLVQAGGSLRLSCAASGRIFAYYAMGWYREAAGKERELVAAITTNGGGTYYADSVKGRFTISRDNAKNTVYLQMNSLKPEHTAVYYSNADKQRSSIFDYWGQGTQVTVSS”, the “polyreactivity (PSR sort gate)” value is “low polyreactivity”.

Take “QVQLVESGGGLVQAGGSLRLSCAASGRIFAYYAMGWYRQAPGKERELVAAISGGGGSTYYADSVKGRFTISRDNAKNTVYLQMNSLKPEDTAVYFCAAKSSRYDYYYWGHGTQVTVSS”: the “polyreactivity (PSR sort gate)” value is reported as “high polyreactivity”.

For the sequence “QVQLVESGGGLVQAGGSLRLSCAASGRIFAYYAMGWYRQAPGKERELVAAITTNGGGTYYADSVKGRFTISRDNAKNTFYLQMNSLKPEDTGVYYCNAVKQRSSIFDYWGQGTQVTVSS”, the “polyreactivity (PSR sort gate)” value was “low polyreactivity”.

On to “QVQLVESGGGLVQAGGSLRLSCAASGRIFAYYAMGWYRQPPGKERELVAAISRSGVSTYYADSVKGRFTISRDNAKNTVYLQMNSLKPEDTAVYYCAKTLSPEGVPYDYWGQGTQVTVSS”, for which the “polyreactivity (PSR sort gate)” value is reported as “low polyreactivity”.

For the sequence “QVQLVESGGGLVQAGGSLRLSCAASGRIFAYYLMGCYRQAPGKEREFVAAISWSGGRTYYADSVKGRFTISRDNAKNTVYLQMNSLKPEDTAVYYCNAGRPLWLAYGMDYWGQGTQVTVSS”, the “polyreactivity (PSR sort gate)” value is listed as “low polyreactivity”.

Turning to “QVQLVESGGGLVQAGGSLRLSCAASGRIFAYYVMGWYRQAPGKERELVAAITWSGTSTYYADSVKGRFTISRDNAKNTVYLQMNSLKPEDTAVYYCNAVWSRSTRGYDYWGQGTQVSVSS”, the “polyreactivity (PSR sort gate)” value is listed as “high polyreactivity”.

With “QVQLVESGGGLVQAGGSLRLSCAASGRIFCGYMGWYRQAPGKEREFVAAISVRGGGTYYADSVKGRFTISRDNAKNTVYLQMNSLKPEDTAVDYCNTRGGWPYDYWGQGTQVTVSS”, the “polyreactivity (PSR sort gate)” value is on record as “low polyreactivity”.

Consider “QVQLVESGGGLVQAGGSLRLSCAASGRIFDANAMGWYRQAPGKERELVAAITYSGGRTYYADSVKGRFTISRDNAKNTVYLQMNSLKPEDTAVYYCAKRYAYIYDSWGQGTQVTVSS”, for which the “polyreactivity (PSR sort gate)” value was “low polyreactivity”.

Take “QVQLVESGGGLVQAGGSLRLSCAASGRIFDDNAMGWYRQAPGKERELVADINNGTSTNYADSVKGRFTISRDNAKNTVYLQMNSLKPEDTAVYYCAADDYIYYRILGDSFVYKAYGYWGQGTQVTVSS”: the “polyreactivity (PSR sort gate)” value was “low polyreactivity”.
